B1: FLT3 ligand Leu27Asp mutant (FL_(L27D)), as produced (ligand)
chain: TQDCSFQHSPISSDFAVKIRELSDYLDQDYPVTVASNLQDEELCGGLWRLVLAQRWMERLKTVAGSKMQGLLERVNTEIHFVTKCAFQPPPSCLRFVQTNISRLLQETSEQLVALKPWITRQNFSRCLELQCQP

Tests used:
[1] = molecular target: wild-type FLT3 ligand (FLWT); assay: SEC-MALS; ligand mixed with FLT3_(D1-D5) (20% molar excess of FL_(L27D)); Superdex 200 Increase, HBS (20 mM HEPES pH 7.4, 150 mM NaCl), 0.5 ml/min, 25 °C; glycoprotein conjugate analysis; N for FLWT counts FLT3 molecules for each dimeric FLWT
[2] = molecular target: human FLT3 domains 1-5 (FLT3_(D1-D5)) (human) (UniProt P36888); assay: as above

| Molecule | stoichiometry N [1] | stoichiometry N [2] |
| --- | --- | --- |
| human FLT3 domains 1-5 (FLT3_(D1-D5)) (from UniProt P36888 27-541) (domain or fragment) | 2 |  |
| B1 |  | 1 |

From PMC8034431
